Several values for one entry are separate records, joined by “and”; a condition that tells them apart may be missing. Equal values may be shown once.
Molecular target: Dylight488-labelled Mtb RNAP core derivative (β' D359 4-azido-L-phenylalanine) (Mycobacterium tuberculosis) (UniProt P9WGZ1)
Experiment: FRET or BRET

For “TMR-labelled Mtb σ^F used in the FRET competition and titration assays (from UniProt P9WGI3 1-261) (natural protein)”, the Kd was 21.1 nM and 2.6 nM.
